In this experiment the target is T1, gp41 HR1 fragment, Ala541 to Leu581 (chain of gp41_(541–665)) (HIV-1 HXB2 group M subtype B, UniProt P04578 541-581).
T1 construct: HIV-1 HXB2 (group M subtype B) envelope glycoprotein, gp41 subunit, residues Ala541 to Leu581 (heptad repeat 1); also called core fragment HR1; source: E. coli Rosetta (DE3), fusion protein; pellets of HR1 and HR2 expressing bacteria mixed before lysis; complex purified (amylose, TEV digestion, Ni2+, anion exchange, SEC); not shown: Flag-tag (DDDDK), N-terminal, kept
As to the kind of experiment: SEC; purified complexes on a Superdex 200 (S200) column in buffer A (0.02 M Tris pH 8.0, 0.1 M NaCl); SDS-PAGE of the peak; the complexes were assembled by mixing bacteria before lysis and co-purified. Conditions: both partners purified. (In general: SEC sorts molecules by how far they enter the pores of the column.)

T1 sequence (P04578 541-581): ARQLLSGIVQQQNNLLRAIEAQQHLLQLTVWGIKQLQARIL

B1: gp41 HR2 fragment, Met628 to Lys665 as printed (chain of gp41_(541–665)) (domain or fragment)
chain: MEWDREINNYTSLIHSLIEESQNQQEKNEQELLELDK
notes: HIV-1 HXB2 (group M subtype B) envelope glycoprotein, gp41 subunit, heptad repeat 2; also called core fragment HR2; source: E. coli Rosetta (DE3), fusion protein; pellets of HR1 and HR2 expressing bacteria mixed before lysis (HR2 in excess); complex purified (amylose, TEV digestion, Ni2+, anion exchange, SEC); not shown: Flag-tag (DDDDK), N-terminal, kept
For the molecule B1, the binding result is recorded as “binds”.
